Reference: patent publication US20240398911A1 (BOARD OF THE TRUSTEES OF THE UNIVERSITY OF ILLINOIS, published 2024)
Where two headings read alike, the source gives them in different places.

Columns and labels:
[1] = molecular target: T1, RBD (a.a. 333-529) of SARS-CoV-2 S with 8 histidine tag (SARS-CoV-2, UniProt P0DTC2 333-529)
[2] = molecular target: full length S of SARS-CoV-2 (untagged, a.a. 1-1273) expressed on Expi293F cells (SARS-CoV-2, UniProt P0DTC2 16-1273)
[3] = molecular target: T1, RBD (a.a. 333-529) of SARS-CoV-2 S with …; test: BLI, sACE22-IgG1 immobilized, RBD-8h analyte
[4] = molecular target: T1, RBD (a.a. 333-529) of SARS-CoV-2 S with …; remark: listed apart in the source
[5] = molecular target: S protein of SARS-CoV-1 expressed on Expi293F cells (SARS-CoV-1, UniProt P59594 14-1255); test: flow cytometry; Expi293F cells expressing S of SARS-CoV-1; normalized units, N=3

B1: sACE2.v2 with 8 histidine tag (receptor)
chain: STIEEQAKYFLDKFNHEAEDLFYQSSLASWNYNTNITEENVQNMNNAGDKWSAFLKEQSTTAQMYPLQEIQNLTVKLQLQALQQNGSSVLSEDKSKRLNTILNTMSTIYSTGKVCNPDNPQECLLLEPGLNEIMANSLDYNERLWAWESWRSEVGKQLRPLYEEYVVLKNEMARANHYEDYGDYWRGDYEVNGVDGYDYSRGQLIEDVEHTFEEIKPLYEHLHAYVRAKLMNAYPSYISPIGCLPAHLLGDMWGRFWTNLYSLTVPFGQKPNIDVTDAMVDQAWDAQRIFKEAEKFFVSVGLPNMTQGFWEYSMLTDPGNVQKAVCHPTAWDLGKGDFRILMCTKVTMDDFLTAHHEMGHIQYDMAYLAQPFLLRNGANEGFHEAVGEIMSLSAATPKHLKSIGLLSPDFQEDNETEINFLLKQALTIVGTLPFTYMLEKWRWMVFKGEIPKDQWMKKWWEMKREIVGVVEPVPHDETYCDPASLFHVSNDYSFIRYYTRTLYQFQFQEALCQAAKHEGPLHKCDISNSTEAGQKLFNMLRLGKSEPWTLALENVVGAKNMNVRPLLNYFEPLFTWLKDQNKNSFVGWSTDWSPYADGSGHHHHHHHH
For B1, the “IC50 (read off the curve)” value [1] was ~6 nM and the “EC50 (read off the curve)” value [2] was ~10 nM.

B2: dimeric sACE22.v2 fused to the Fc of human IgG1 (Fc fusion)
chain: STIEEQAKYFLDKFNHEAEDLFYQSSLASWNYNTNITEENVQNMNNAGDKWSAFLKEQSTTAQMYPLQEIQNLTVKLQLQALQQNGSSVLSEDKSKRLNTILNTMSTIYSTGKVCNPDNPQECLLLEPGLNEIMANSLDYNERLWAWESWRSEVGKQLRPLYEEYVVLKNEMARANHYEDYGDYWRGDYEVNGVDGYDYSRGQLIEDVEHTFEEIKPLYEHLHAYVRAKLMNAYPSYISPIGCLPAHLLGDMWGRFWTNLYSLTVPFGQKPNIDVTDAMVDQAWDAQRIFKEAEKFFVSVGLPNMTQGFWEYSMLTDPGNVQKAVCHPTAWDLGKGDFRILMCTKVTMDDFLTAHHEMGHIQYDMAYLAQPFLLRNGANEGFHEAVGEIMSLSAATPKHLKSIGLLSPDFQEDNETEINFLLKQALTIVGTLPFTYMLEKWRWMVFKGEIPKDQWMKKWWEMKREIVGVVEPVPHDETYCDPASLFHVSNDYSFIRYYTRTLYQFQFQEALCQAAKHEGPLHKCDISNSTEAGQKLFNMLRLGKSEPWTLALENVVGAKNMNVRPLLNYFEPLFTWLKDQNKNSFVGWSTDWSPYADQSIKVRISLKSALGDKAYEWNDNEMYLFRSSVAYAMRQYFLKVKNQMILFGEEDVRVANLKPRISFNFFVTAPKNVSDIIPRTEVEKAIRMSRSRINDAFRLNDNSLEFLGIQPTLGGS
In the case of B2, the Kd [3] is reported as 0.2 nM, the koff [3] is reported as 0.00014 s⁻¹ and the kon [3] is reported as 580000 M⁻¹ s⁻¹.

B3: dimeric sACE22.v2.4 with 8 histidine tag (receptor)
chain: STIEEQAKYFLDKFNHEAEDLFYQSSLASWNYNTNITEENVQNMNNAGDKWSAFLKEQSTTAQMYPLQEIQNLTVKLQLQALQQNGSSVLSEDKSKRLNTILNTMSTIYSTGKVCNPDNPQECLLLEPGLNEIMANSLDYNERLWAWESWRSEVGKQLRPLYEEYVVLKNEMARANHYEDYGDYWRGDYEVNGVDGYDYSRGQLIEDVEHTFEEIKPLYEHLHAYVRAKLMNAYPSYISPIGCLPAHLLGDMWGRFWTNLYSLTVPFGQKPNIDVTDAMVDQAWDAQRIFKEAEKFFVSVGLPNMTQGFWEYSMLTDPGNVQKAVCHPTAWDLGKGDFRILMCTKVTMDDFLTAHHEMGHIQYDMAYAAQPFLLRNGANEGFHEAVGEIMSLSAATPKHLKSIGLLSPDFQEDNETEINFLLKQALTIVGTLPFTYMLEKWRWMVFKGEIPKDQWMKKWWEMKREIVGVVEPVPHDETYCDPASLFHVSNDYSFIRYYTRTLYQFQFQEALCQAAKHEGPLHKCDISNSTEAGQKLFNMLRLGKSEPWTLALENVVGAKNMNVRPLLNYFEPLFTWLKDQNKNSFVGWSTDWSPYADQSIKVRISLKSALGDKAYEWNDNEMYLFRSSVAYAMRQYFLKVKNQMILFGEEDVRVANLKPRISFNFFVTAPKNVSDIIPRTEVEKAIRMSRSRINDAFRLNDNSLEFLGIQPTLGGSGHHHHHHHH
In the case of B3, the “IC50 (read off the curve)” value [4] is reported as ~4 nM.

B4: REGN10933 (casirivimab) (antibody, V domains shown)
VH: QVQLVESGGGLVKPGGSLRLSCAASGFTFSDYYMSWIRQAPGKGLEWVSYITYSGSTIYYADSVKGRFTISRDNAKSSLYLQMNSLRAEDTAVYYCARDRGTTMVPFDYWGQGTLVTVSS
VL: DIQMTQSPSSLSASVGDRVTITCQASQDITNYLNWYQQKPGKAPKLLIYAASNLETGVPSRFSGSGSGTDFTFTISGLQPEDIATYYCQQYDNLPLTFGGGTKVEIKR
B4: no binding (tested: 70 nM) [5].

B5: REGN10987 (imdevimab) (antibody, V domains shown)
VH: QVQLVESGGGVVQPGRSLRLSCAASGFTFSNYAMYWVRQAPGKGLEWVAVISYDGSNKYYADSVKGRFTISRDNSKNTLYLQMNSLRTEDTAVYYCASGSDYGDYLLVYWGQGTLVTVSS
VL: QSALTQPASVSGSPGQSITISCTGTSSDVGGYNYVSWYQQHPGKAPKLMIYDVSKRPSGVSNRFSGSKSGNTASLTISGLQSEDEADYYCNSLTSISTWVFGGGTKLTVLG
B5: no binding (tested: 70 nM) [5].
